Source: IntAct's records for PubMed 22198837

B1: Histone chaperone RTT106 (Saccharomyces cerevisiae), P40161 (parent)
chain: MSKLFLDELPESLSRKIGTVVRVLPSSLEIFEELYKYALNENSNDRSGRHKKPRIDVSSDLLKTDEISETNTIFKLEGVSVLSPLRKKLDLVFYLSNVDGSPVITLLKGNDRELSIYQLNKNIKMASFLPVPEKPNLIYLFMTYTSCEDNKFSEPVVMTLNKENTLNQFKNLGLLDSNVTDFEKCVEYIRKQAILTGFKISNPFVNSTLVDTDAEKINSFHLQCHRGTKEGTLYFLPDHIIFGFKKPILLFDASDIESITYSSITRLTFNASLVTKDGEKYEFSMIDQTEYAKIDDYVKRKQMKDKSMSEELKAKSKSKGQATDGTADQPSILQEATRQMQDEKKAGVFSDDDEENDQNFEAESDLSDGSGQESSDGAEDGEEAEEDDEEDDEEEDKKGQSALNRDNSFASINGQPEQELQYKEFKEPLELEDIPIEIDNDDDEDDEDGSGVEYD

Variants of: B1
Conditions: with h3_yeast HHT1, P61830

effect of a mutation on the interaction | Variant
disrupting interaction strength | T265E
disrupting interaction strength | R86A
disrupting interaction strength | S80E
